Our source for the Fold change and IC50 values is paper PMC8458281, “Computational modeling and experimental validation of the EPI-X4/CXCR4 complex allows rational design of small peptide antagonists” (Communications Biology, 2021).

Assay [1] relates to CXCR4 E288D. As to the kind of experiment: 12G5 antibody competition, 293T cells transfected with CXCR4 E288D. The note with it: IC50 on CXCR4 E288D relative to wt. The assay is classed as binding, human. The text has this:
The human CXCR4 gene (isoform 1 or b, NCBI Reference Sequence: NP_003458.1, UniProtKB/Swiss-Prot: P61073-1) was amplified by PCR of the pTrip_GFP_CXCR4 vector (kindly provided by Prof. Françoise Bachelerie, Paris, France) by generating the flanking single cutter sites NheI and HindIII. The PCR fragment was ligated in the empty pcDNA3.1(+) vector (Life Technologies GmbH, Darmstadt). Afterward, the IRES-eGFP cassette of the proviral clone pBR_NL4-3_IRES-eGFP[44] was PCR-amplified with EcoRI and NotI single cutter sites and ligated in the multiple cloning site after CXCR4. […]
To test for peptide interaction with CXCR4, 50,000 SupT1 cells were seeded in 96-well microtiter plates in PBS supplemented with 1% FCS, the buffer was removed and cells were precooled at 4 °C. […] Afterward, the unbound antibody was removed and cells analyzed by flow cytometry. The mean fluorescence intensity (MFI) was normalized to the PBS control. […] IC50 values were determined by nonlinear regression using GraphPad Prism. […] For analysis, after flow cytometry, eGFP expressing cells were gated and further analyzed. CXCR4 expression levels and antibody binding to CXCR4 was determined using the CXCR4 antibody clones 12G5 (binds to the second ECL loop) (#555976, BD PharmingenTM) and 1D9 (binds to the N-terminus) (#551510, BD PharmingenTM) (Supplement Figure S5). […]

In assay [2] the target is T1, CXCR4 D262A (human, UniProt P61073-1 1-352, D262A).
T1 construct: human CXCR4, isoform 1 or b; source: 293T cells, transiently transfected (pcDNA3.1 CXCR4-IRES-eGFP), on cells
T1 sequence (P61073 whole entry D262A, canonical isoform): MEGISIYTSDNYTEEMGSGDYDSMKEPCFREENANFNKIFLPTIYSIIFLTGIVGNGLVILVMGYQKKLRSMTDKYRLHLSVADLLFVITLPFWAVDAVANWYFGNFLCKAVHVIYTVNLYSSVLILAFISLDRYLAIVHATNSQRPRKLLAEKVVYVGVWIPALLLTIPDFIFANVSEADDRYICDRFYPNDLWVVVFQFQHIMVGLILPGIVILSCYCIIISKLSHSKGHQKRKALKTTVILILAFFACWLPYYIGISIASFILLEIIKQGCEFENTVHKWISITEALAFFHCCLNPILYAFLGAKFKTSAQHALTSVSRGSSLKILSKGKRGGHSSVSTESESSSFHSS
Description: flow cytometry on cells; 12G5 antibody competition on 293T cells transiently transfected with CXCR4 wt or mutants (IRES-eGFP vector), eGFP-positive cells gated; serially diluted peptide with a constant concentration of CXCR4 antibody clone 12G5, 2 h; bound antibody read; IC50 by nonlinear regression. The note with it: one partner purified.

Assay [3] deals with T2, CXCR4 L41A (human, UniProt P61073-1 1-352, L41A).
T2 construct: human CXCR4, isoform 1 or b; source: 293T cells, transiently transfected (pcDNA3.1 CXCR4-IRES-eGFP), on cells
T2 sequence (P61073 whole entry L41A, canonical isoform): as the sequence (P61073 whole entry D262A, canonical isoform) above, with L41A, A262D counted along it
The assay is described as above. As to conditions: one partner purified.

In assay [4] the target is T3, CXCR4 D97E (human, UniProt P61073-1 1-352, D97E).
T3 construct: human CXCR4, isoform 1 or b; source: 293T cells, transiently transfected (pcDNA3.1 CXCR4-IRES-eGFP), on cells
T3 sequence (P61073 whole entry D97E, canonical isoform): as the sequence (P61073 whole entry D262A, canonical isoform) above, with D97E, A262D counted along it
The assay is described as above. The note with it: one partner purified.

“IVRWSKKVPCVS [WSC02, first-generation C-terminally truncated 12-mer derivative of EPI-X4 with four substitutions]”: in assay [1], the Fold change is on record as 74.

B1: EPI-X4 (Alb408-423) (peptide)
peptide: LVRYTKKVPQVSTPTL
notes: source: synthetic peptide (Fmoc solid-phase synthesis, HPLC-purified)
Consider B1, for which the 50% inhibitory concentration (IC50) turned out to be 5.21 µM in assay [2], 132 µM in assay [3] and 129 µM in assay [4].
